Legend:
Test in all cases: EMSA
[1] = biological target: T1, Acr-Link2-λN22 (bacteriophage λ, UniProt P03045 1-22)
T1 chain: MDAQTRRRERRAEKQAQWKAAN

[2] = biological target: T2, λN11 (bacteriophage λ, UniProt P03045 1-11)
T2 chain: MDAQTRRRERR

[3] = biological target: T3, λN22 (bacteriophage λ, UniProt P03045 1-22)
T3 chain: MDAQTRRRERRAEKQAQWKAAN

Measured: binding result

GCCCUGAAAAAGGGC (structured_RNA) [λ boxB 15mer]
binds: all assays above

— PMC2901922
